{"source": "paper PMC3873856", "about": "(Biochemistry, 2013)", "molecules": {"B1": {"name": "Sema3A.3, furin processed variant of the Sema3A C-terminal domain (peptide)", "chain": "NTMDEFCEQVWKRDRKQRRQRPGHTPGNSNKWKHLQENKKGRNRRTHEFERAPR"}}, "key": {"[1]": {"biological_target": "T1, Nrp1 (Nrp1-b1b2) / VEGF-A binding (Homo sapiens, UniProt O14786)", "T1 sequence (O14786 274-586)": "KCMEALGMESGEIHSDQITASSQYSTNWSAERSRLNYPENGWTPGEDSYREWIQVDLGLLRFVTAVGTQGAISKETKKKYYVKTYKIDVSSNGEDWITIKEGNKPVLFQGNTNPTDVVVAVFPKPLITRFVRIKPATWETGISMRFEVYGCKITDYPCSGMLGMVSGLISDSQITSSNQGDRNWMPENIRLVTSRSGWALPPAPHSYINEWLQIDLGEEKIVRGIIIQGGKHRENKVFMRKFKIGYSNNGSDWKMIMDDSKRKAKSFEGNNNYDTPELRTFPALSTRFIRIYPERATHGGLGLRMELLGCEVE", "test": "Plate-based inhibition of AP-VEGF-A binding to Nrp1", "conditions": "comparison of IC50 values, in words"}, "[2]": {"biological_target": "T2, Nrp1-b1b2 (residue 274 to 586) (UniProt O14786 274-586)", "T2 sequence (looked up)": "T1 sequence (O14786 274-586)", "test": "plate-based competition assay with alkaline phosphatase fused ligand"}}, "note": "Several values for one entry are separate records, joined by “and”; a condition that tells them apart may be missing. Equal values may be shown once. Bridges are numbered along the chain shown (N, C = ends). Roman numbers before positions name the chains, in order. Where no end group is shown, it is not given here.", "data": [{"molecule": "I: CQGYWRHVPPSPREAPGAPRSPEPDQKKPRNRR-OH / II: CQGYWRHVPPSPREAPGAPRSPEPDQKKPRNRR-OH (disulfide I:1-II:1) [ΔN-C-furSema]", "values": [{"measurement": "potency relative to C-furSema in inhibiting VEGF-A binding to Nrp1", "setting": "[1]", "value": "approximately five-fold less potent"}]}, {"molecule": "NTMDEFCEQVWKRDRKQRRQRPGHTPGNSNKWKHLQENKKGRNRR", "note": "[Sema3A.2, furin processed variant of the Sema3A C-terminal domain]", "values": [{"measurement": "IC50", "setting": "[2]", "value": 45, "unit": "nM"}]}, {"molecule": "GLIHQYCQGYWRHVPPSPREAPGAPRSPEPDQKKPRNRR (also: homodimer)", "note": "[furin-processed C-terminal domain of Sema3F (C-furSema), homodimeric]", "values": [{"measurement": "IC50", "setting": "[2]", "value": "25 nM and 24 nM"}]}, {"molecule": "GLIHQYCQGYWRHVPPSPREAPGAPRSPEPDQKKPRNRA (also: homodimer, intermolecular disulfide Cys7-Cys7)", "note": "[C-furSema R779A]", "values": [{"measurement": "IC50", "setting": "[2]", "value": 4500, "unit": "nM"}]}, {"molecule": "GLIHQYSQGYWRHVPPSPREAPGAPRSPEPDQKKPRNRR", "note": "[monomeric C-furSema^Mon]", "values": [{"measurement": "IC50", "setting": "[2]", "value": 1300, "unit": "nM"}]}, {"molecule": "CQGYWRHVPPSPREAPGAPRSPEPDQKKPRNRR", "note": "[ΔN-C-furSema]", "values": [{"measurement": "IC50", "setting": "[2]", "value": 111, "unit": "nM"}]}, {"molecule": "B1", "values": [{"measurement": "IC50", "setting": "[2]", "value": 27, "unit": "nM"}]}, {"molecule": "NTMDEFCEQVWKRDRKQR", "note": "[Sema3A.1, shortest furin processed variant of the Sema3A C-terminal domain]", "values": [{"measurement": "IC50", "setting": "[2]", "value": 1100, "unit": "nM"}]}]}
